In patent publication US20030147885A1 (IDEC PHARMACEUTICALS, published 2003) one finds Kd and % inhibition of I-125 labeled anti-CD20 Bl binding data, which are given here for three molecules.

Assay [1] addresses human B lymphocyte-restricted differentiation antigen Bp35 (CD20) (human) (UniProt P11836). In words: direct binding of I-125 radiolabeled antibody to CD20 positive B cells, Scatchard plot; printed as apparent affinity constant (Kap).
For assay [2] the target is unchanged. In words: radioimmunoassay: hybridoma medium against 10 ng I-125 labeled anti-CD20 Bl on 100,000 SB cells.
The target in assay [3] is T1, human B lymphocyte-restricted differentiation antigen Bp35 (CD20) (human, UniProt P11836 1-297).
T1 construct: whole, on cells; Presented on SB cells, other CD20 positive B cell lines or acetone-fixed human tissues; also called CD20 antigen; CD20 surface antigen
T1 sequence (looked up): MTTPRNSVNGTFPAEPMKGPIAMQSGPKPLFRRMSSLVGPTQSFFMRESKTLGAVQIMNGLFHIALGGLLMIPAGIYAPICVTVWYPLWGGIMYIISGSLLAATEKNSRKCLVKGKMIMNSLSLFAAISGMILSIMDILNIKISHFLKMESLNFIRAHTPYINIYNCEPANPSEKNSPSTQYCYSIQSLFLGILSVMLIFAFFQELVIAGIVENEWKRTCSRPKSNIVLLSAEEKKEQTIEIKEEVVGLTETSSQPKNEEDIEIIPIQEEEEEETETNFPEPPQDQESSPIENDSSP
Kind of assay: direct binding of I-125 radiolabeled antibody to CD20 positive B cells, Scatchard plot; printed as apparent affinity constant (Kap).

Consider “murine anti-CD20 monoclonal antibody 2B8”, for which the Kd in assay [1] was determined as 3.5 nM. The molecule also gave a % inhibition of I-125 labeled anti-CD20 Bl binding in assay [2] of 50%.

B1: chimeric anti-CD20 antibody produced by the CHO transfectoma (antibody, V domains shown)
VH: QVQLQQPGAELVKPGASVKMSCKASGYTFTSYNMHWVKQTPGRGLEWIGAIYPGNGDTSYNQKFKGKATLTADKSSSTAYMQLSSLTSEDSAVYYCARSTYYGGDWYFNVWGAGTTVTVSA
VL: QIVLSQSPAILSASPGEKVTMTCRASSSVSYIHWFQQKPGSSPKPWIYATSNLASGVPVRFSGSGSGTSYSLTISRVEAEDAATYYCQQWTSNPPTFGGGTKLEIK
notes: domain: heavy chain gamma 1 constant region (Kabat numbering amino acids 114-478); also called C2B8; CHO produced chimeric anti-CD20; not shown: human immunoglobulin light chain kappa constant region, Kabat numbering amino acids 108-214, allotype Km 3
Turning to B1, the Kd in assay [3] worked out at 5.2 nM.

B2: chimeric anti-CD20 antibody produced by the SP2/0 transfectoma (antibody, V domains shown)
VH: QVQLQQPGAELVKPGASVKMSCKASGYTFTSYNMHWVKQTPGRGLEWIGAIYPGNGDTSYNQKFKGKATLTADKSSSTAYMQLSSLTSEDSAVYYCARSTYYGGDWYFNVWGAGTTVTVSA
VL: QIVLSQSPAILSASPGEKVTMTCRASSSVSYIHWFQQKPGSSPKPWIYATSNLASGVPVRFSGSGSGTSYSLTISRVEAEDAATYYCQQWTSNPPTFGGGTKLEIK
notes: domain: heavy chain gamma 1 constant region (Kabat numbering amino acids 114-478); Same construct as m2, but produced in SP2/0 mouse myeloma cells; also called SP2/0 produced antibody; not shown: human immunoglobulin light chain kappa constant region, Kabat numbering amino acids 108-214, allotype Km 3
Take B2: in assay [3], the Kd was found to be 7.4 nM.
